Legend:
human CCR8 [1] = biological target: T1, human CCR8 (human, UniProt P51685 1-355); experiment: flow cytometry, 293T-huCCR8 cells
T1 construct: Full length; also called huCCR8; C-C motif chemokine receptor 8
Source text: (§1) After washing twice with FACS buffer, cells were resuspended with FACS buffer and acquired on a Beckton Dickinson LSR Fortessa™. Titration curves were generated using sigmoid dose-response of nonlinear fit from GraphPad, and the EC50s of representative antibodies are shown in Table 2.

[2] = biological target: T2, human CCR8 N-terminal domain-mouse Fc tag fusion protein (human (CCR8 part), mouse IgG2a Fc); experiment: ELISA, plate coated with human CCR8 N-terminal domain-Fc fusion
T2 construct: also called huCCR8-N-mIgG2a; human CCR8 N-terminal protein
T2 chain: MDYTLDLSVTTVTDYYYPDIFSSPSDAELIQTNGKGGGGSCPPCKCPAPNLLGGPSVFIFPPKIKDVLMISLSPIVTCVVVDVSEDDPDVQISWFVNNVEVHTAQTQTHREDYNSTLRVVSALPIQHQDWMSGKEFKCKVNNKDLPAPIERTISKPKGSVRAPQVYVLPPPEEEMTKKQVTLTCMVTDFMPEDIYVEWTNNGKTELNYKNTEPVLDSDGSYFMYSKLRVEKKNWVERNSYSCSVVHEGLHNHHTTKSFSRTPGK
Protocol: To determine whether anti-CCR8 antibodies bind to the N-terminal domain of human CCR8, ELISA plates were coated with human CCR8 N-terminal domain-mouse Fc tag fusion protein (SEQ ID NO: 28 and 29) overnight at 4° C. After washing and blocking, serially diluted anti-CCR8 antibodies were added to plates and incubated for 1 hour at room temperature. After washing, diluted HRP goat anti-human IgG Fc or HRP goat anti-mouse kappa chain (for 433H) secondary antibodies were added to plates and incubated for 45 minutes at room temperature. After washing, TMB substrate was added to plates for developing and then stopped by adding TMB substrate stop solution. The absorbance was read at 450 nm using a plate reader. […] It is a non CCR8 N-terminal loop binder.

Cynomolgus Monkey CCR8 = biological target: T3, Cynomolgus Monkey CCR8 (cynomolgus monkey, UniProt O97665 1-356 (rhesus entry)); experiment: flow cytometry, 293T-cynoCCR8 cells
T3 construct: also called cyno CCR8; cynoCCR8
T3 sequence (O97665 other isoform, or with tags, fused parts or gaps): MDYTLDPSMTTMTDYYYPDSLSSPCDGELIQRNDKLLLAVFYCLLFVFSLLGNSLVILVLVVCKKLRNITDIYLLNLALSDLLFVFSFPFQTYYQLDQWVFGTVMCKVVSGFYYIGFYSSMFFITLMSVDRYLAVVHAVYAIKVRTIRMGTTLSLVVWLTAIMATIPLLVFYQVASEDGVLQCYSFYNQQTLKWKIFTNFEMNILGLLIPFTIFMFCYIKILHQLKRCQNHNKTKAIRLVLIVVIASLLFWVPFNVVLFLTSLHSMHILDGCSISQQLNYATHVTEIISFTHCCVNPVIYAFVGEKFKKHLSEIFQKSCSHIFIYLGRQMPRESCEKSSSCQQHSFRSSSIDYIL
Source text: as §1

human CCR8 [3] = biological target: T1, human CCR8; experiment: flow cytometry, Jurkat-human CCR8 cells
Protocol: To evaluate the binding activity of anti-CCR8 antibodies to bind CCR8 expressed on living cells, Jurkat cells were engineered to over-express human CCR8. Jurkat-human CCR8 cells were seeded in 96-well plate and incubated with a series of dilutions of anti-CCR8 antibodies. Goat anti-human IgG was used as secondary antibody to detect antibody binding to the cell surface. EC50 values for dose-dependent binding to human CCR8 were determined by fitting the dose-response data to the four-parameter logistic model with GraphPad Prism. As shown in Table 4 and FIG. 3 the CCR8 antibodies had high binding affinity to human CCR8.

mouse CCR8 = biological target: T4, mouse CCR8 (mouse, UniProt P56484 1-353); experiment: flow cytometry on transfected Expi293 cells, serial dilution
T4 construct: Full length, transiently expressed on Expi293 cells; also called muCCR8; CCR8-mo8
T4 sequence: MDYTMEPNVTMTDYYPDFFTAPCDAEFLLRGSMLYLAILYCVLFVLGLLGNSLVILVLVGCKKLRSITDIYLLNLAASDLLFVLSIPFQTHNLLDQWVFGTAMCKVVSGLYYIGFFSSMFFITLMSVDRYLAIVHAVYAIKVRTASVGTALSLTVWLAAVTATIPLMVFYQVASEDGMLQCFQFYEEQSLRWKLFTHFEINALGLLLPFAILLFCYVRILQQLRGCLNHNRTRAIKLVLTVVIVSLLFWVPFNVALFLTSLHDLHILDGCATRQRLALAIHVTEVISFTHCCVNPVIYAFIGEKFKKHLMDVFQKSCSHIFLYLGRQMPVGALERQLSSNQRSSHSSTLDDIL
Protocol: The plasmids containing these chimeric CCR8 constructs, and human CCR8 (CCR8-hu8) and mouse CCR8 (CCR8-mo8) as control, were used to transfect Expi293™ cells for transient protein expression, after which cells were incubated with a serial dilution of the purified Ch305 as well as a reference antibody 10A11 from Shionogi (US 2022/0064312 A1). The binding of each construct was evaluated detection with Alexa Fluor 647 Rabbit Anti-Human IgG (Cat.: 309-605-008 Jackson ImmunoResearch). […] In addition, replacing the human CCR8 N-terminal region with mouse CCR8 N-terminal (CCR8_Ch1) also weakly impairs the affinity, which means human CCR8 N-terminal contributes to the binding activity of human CCR8 with Ch305. In the meanwhile, substituting mouse CCR8 N-terminal with human CCR8 N-terminal (CCR8_Ch5) rescues the binding activity of murine CCR8 with Ch305 to some extent much weaker than the binding activity of wild type human CCR8 to Ch305, which means human CCR8 N-terminal contributes but weakly or partly to the binding activity of human CCR8 with Ch305. […] In comparison, the reference antibody 10A11 binds to the N-terminal region of CCR8 only and it has no binding to ECL1, ECL2 and ECL3, that is, the epitope of 10A11 on human CCR8 locates only on N-terminal of human CCR8 (FIG. 9B).

human CCR8 [4] = biological target: T1, human CCR8; experiment: cell-based or functional assay

B1: Ch305 (antibody, V domains shown)
VH: QVQMKQSGPSLVQPSQSLSITCTVSGFSLTSYGVHWVRQSPGKGLEWLGVIWRGGTTDYNAAFMSRLSFTKDSSKSQVFFKLNSLQADDTAIYYCAKNRVTTVVAPNFYAMDYWGQGTSVTVSS
VL: DIVMTQSPSSLAVSVGEKVTMSCKSSQSLLYSGNQKNYLAWYQQKPGQSPKLLIYWASTRKSGVPDRLTGSGSGTDFTLTISSVKAEDLAAYYCQQYYTYPLTFGAGTRLEIK
With B1 the EC50 (human CCR8 [1]) was 3.67 nM, the EC50 [2] was 5.01 nM and the EC50 (Cynomolgus Monkey CCR8) was 4.1 nM. For the same binder, the EC50 (human CCR8 [3]) was 9.37 nM, the binding result (mouse CCR8) was “no binding” and the “IC50 (nM), ligand blocking activity (PathHunter beta-arrestin)” value (human CCR8 [4]) was 5.9 nM.

Source: patent US20250115671A1 (BEIGENE, published 2025)
